Laboratory results as given in FireProtDB (doi:10.1016/j.jmb.2005.07.042).
Where “and” joins values, the source holds several entries; their conditions need not be identical. Equal entries are not always repeated.

Conditions: Escherichia coli (strain K12), pH 7.4, Thermal, DSC, Pipes 50 mM, reversible: yes (80%), whole UniProt chain shown

B1: Guanylate kinase wild type, P60546 (protein)
chain: MAQGTLYIVSAPSGAGKSSLIQALLKTQPLYDTQVSVSHTTRQPRPGEVHGEHYFFVNHDEFKEMISRDAFLEHAEVFGNYYGTSREAIEQVLATGVDVFLDIDWQGAQQIRQKMPHARSIFILPPSKIELDRRLRGRGQDSEEVIAKRMAQAVAEMSHYAEYDYLIVNDDFDTALTDLKTIIRAERLRMSRQKQRHDALISKLLAD
- unfolding enthalpy (calorimetric) (NaCl 250 mM, transition: 3): 36.8 kcal/mol and 70.3 kcal/mol
- unfolding enthalpy (calorimetric) (transition: 3): 38.9 kcal/mol and 67.5 kcal/mol
- unfolding enthalpy (calorimetric) (transition: 4): 27.3 kcal/mol and 47.8 kcal/mol and 30.8 kcal/mol
